Reference: paper doi:10.1101/2025.11.17.688653

Target: mouse PIEZO1-R2482H (mouse) (UniProt E2JF22)
Experiment: cryo-EM structure

mouse PIEZO1-R2482H, E2JF22 1-2547
stoichiometry N: 3
